Data from paper PMC4281067, “New Insight into Secreted Ribonuclease Structure: Binase Is a Natural Dimer” (PLoS ONE, 2014).

Target: the molecule itself
Assay: SDS-PAGE (SDS-resistant dimer band) with LC-MS/MS of the excised bands; lyophilised pure binase on 15% SDS-PAGE with 0.1% SDS; 12 and 25 kDa bands, both detected by anti-binase immunoblot and in-gel RNase activity; 25 kDa band not fully lost with 2% SDS or 4-8 M urea; bands trypsin-digested and identified by LC-MS/MS

B1: binase (guanyl-preferring RNase secreted by Bacillus pumilus), wild-type enzyme designated as "native" binase (enzyme, Bacillus pumilus (former B. intermedius), UniProt P00649 54-162, looked up)
chain: AVINTFDGVADYLIRYKRLPDNYITKSQASALGWVASKGNLAEVAPGKSIGGDVFSNREGRLPSASGRTWREADINYVSGFRNADRLVYSSDWLIYKTTDHYATFTRIR
notes: binase, secreted RNase of Bacillus pumilus (former B. intermedius); single chain of 109 amino acids, molecular weight 12.3 kDa; secreted enzyme isolated from the medium; binase has no sulfhydryl groups; also called B. intermedius RNase; wild-type binase; source: isolated from the medium of B. pumilus 7P, purified (MonoS), lyophilised; also unpurified B. pumilus culture fluid
With B1 the “stoichiometry N” value was 2.
